Measurements: the Human Domainome abundance scans (Beltran et al. 2025)
± gives the uncertainty stated by the source.

B1: Double-stranded RNA-binding protein Staufen homolog 1, residues 183 to 249; numbered along this chain, O95793 (parent)
chain: KSEISQVFEIALKRNLPVNFEVARESGPPHMKNFVTKVSVGEFVGEGEGKSKKISKKNAAIAVLEEL
B2: DnaJ homolog subfamily C member 5, residues 16 to 77; numbered along this chain, Q9H3Z4 (parent)
chain: LYHVLGLDKNATSDDIKKSYRKLALKYHPDKNPDNPEAADKFKEINNAHAILTDATKRNIYD

Variants of: B1
Assay: abundance fitness (aPCA) (normalised: wild type 0, dead -1); higher = more abundant; growth selection in yeast, the domain comes from the species named
Conditions: Homo sapiens

Variant | abundance fitness
V35H | 0.029 ± 0.06
V35T | -0.02 ± 0.05
F43L | -0.126 ± 0.043
E25Q | 0.021 ± 0.051
G49L | -0.802 ± 0.045
A59P | -1.08 ± 0.12
A59Q | -0.785 ± 0.081
E3H | -0.219 ± 0.072
K53F | -0.175 ± 0.075
K53L | -0.235 ± 0.048
K53T | -0.311 ± 0.057
F20S | -0.429 ± 0.048
I4W | -0.359 ± 0.051
V7F | -0.748 ± 0.083
N19D | -0.229 ± 0.099
S51F | -0.929 ± 0.1
P17T | 0.012 ± 0.051
P17G | -0.24 ± 0.054
P17M | -0.172 ± 0.07
E21M | -0.181 ± 0.059
E21S | -0.078 ± 0.043
G27A | -0.239 ± 0.043

Variant | abundance fitness
G27M | -0.395 ± 0.05
S2Q | -0.305 ± 0.076
V63L | -0.143 ± 0.045
E48V | 0.048 ± 0.047
I61W | -0.624 ± 0.076
G47Q | -0.611 ± 0.065
G47K | -0.81 ± 0.093
G47Y | -0.945 ± 0.1
M31D | 0.199 ± 0.067
K13D | -0.327 ± 0.085
A11V | -0.892 ± 0.065
L67A | -0.509 ± 0.083
A23F | -0.121 ± 0.066
K52T | -0.52 ± 0.053
S26P | -0.27 ± 0.45
R24H | -0.118 ± 0.073
K37I | -0.529 ± 0.21
K37P | -0.756 ± 0.12
P29R | -0.08 ± 0.032
L12R | 0.127 ± 0.06
N15L | -0.531 ± 0.065

Variants of: B2
Assay: as above
Conditions: Homo sapiens

Variant | abundance fitness
L1M | 0.022 ± 0.15
L1G | -0.539 ± 0.11
L1S | -0.198 ± 0.11
L1N | 0.262 ± 0.17
L1R | -0.741 ± 0.2
L1A | -0.124 ± 0.17
L1C | -0.284 ± 0.43
L1F | 0.197 ± 0.16
L1I | -0.084 ± 0.21
L1T | -0.542 ± 0.22
L1W | -0.352 ± 0.099
L1K | -0.269 ± 0.19
L1E | -0.14 ± 0.13
G6M | -0.655 ± 0.23
G6D | -0.046 ± 0.12
G6W | -1.02 ± 0.14
G6K | -0.751 ± 0.25
G6V | -1.42 ± 0.16
G6F | -0.985 ± 0.17
G6A | -0.485 ± 0.1
G6L | -0.625 ± 0.089
G6Y | -0.671 ± 0.41
G6P | -0.799 ± 0.12
G6S | -0.559 ± 0.069
G6E | -0.866 ± 0.17

Variant | abundance fitness
G6R | -0.488 ± 0.11
G6N | 0.069 ± 0.47
G6C | -0.466 ± 0.13
D8F | -0.533 ± 0.11
D8R | -0.44 ± 0.066
D8M | -0.355 ± 0.08
D8K | -0.516 ± 0.13
D8A | -0.258 ± 0.069
D8N | -0.277 ± 0.11
D8P | 0.108 ± 0.12
D8G | -0.459 ± 0.075
D8C | -0.497 ± 0.098
D8I | -0.807 ± 0.11
D8H | -0.42 ± 0.14
D8Q | -0.019 ± 0.12
Y2G | -0.28 ± 0.11
Y2W | -0.534 ± 0.11
Y2C | -0.686 ± 0.11
Y2A | -0.496 ± 0.091
Y2R | -0.922 ± 0.12
Y2D | -0.18 ± 0.17
Y2Q | -0.358 ± 0.15
Y2H | -0.492 ± 0.12
Y2M | -0.422 ± 0.12
Y2V | -0.873 ± 0.13

Variant | abundance fitness
Y2I | -0.809 ± 0.19
Y2T | -0.357 ± 0.27
Y2K | -0.692 ± 0.13
Y2F | -0.394 ± 0.14
Y2N | -0.011 ± 0.17
Y2L | -0.653 ± 0.062
Y2E | -0.098 ± 0.1
Y2S | -0.516 ± 0.085
V4M | -0.078 ± 0.096
V4N | -0.15 ± 0.088
V4C | -0.056 ± 0.1
V4K | -0.646 ± 0.096
V4W | -0.687 ± 0.083
V4Y | -0.553 ± 0.12
V4Q | -0.546 ± 0.11
V4F | -0.362 ± 0.15
V4R | -0.765 ± 0.07
V4L | -0.292 ± 0.051
V4D | -0.458 ± 0.13
V4I | -0.054 ± 0.074
V4P | -0.733 ± 0.1
V4S | -0.259 ± 0.07
V4G | -0.599 ± 0.054
V4T | -0.209 ± 0.084
V4E | -0.374 ± 0.11

Variant | abundance fitness
V4A | 0.034 ± 0.085
L7A | -0.298 ± 0.085
L7H | -0.54 ± 0.36
L7P | -0.231 ± 0.14
L7F | -0.734 ± 0.15
L7I | -0.477 ± 0.18
L7E | -0.298 ± 0.079
L7V | -0.103 ± 0.075
L7C | -0.149 ± 0.1
L7D | -0.316 ± 0.14
L7Y | -1.01 ± 0.22
L7K | -0.365 ± 0.092
L7T | -0.721 ± 0.14
L7Q | -0.309 ± 0.092
L7S | -0.345 ± 0.087
L7N | -0.434 ± 0.22
L7R | -0.608 ± 0.07
L7W | -0.949 ± 0.096
H3N | -0.27 ± 0.16
H3S | 0.147 ± 0.082
H3Q | -0.116 ± 0.098
H3T | -0.017 ± 0.08
H3D | -0.528 ± 0.24
H3I | -0.423 ± 0.13
H3L | -0.364 ± 0.074

Variant | abundance fitness
H3A | -0.14 ± 0.096
H3C | -0.148 ± 0.22
H3K | -0.133 ± 0.17
H3G | -0.157 ± 0.089
H3Y | -0.489 ± 0.17
H3E | -0.114 ± 0.13
H3M | -0.153 ± 0.1
H3W | -0.301 ± 0.098
H3F | -0.216 ± 0.22
H3R | -0.185 ± 0.082
H3P | -0.602 ± 0.093
L5T | -0.368 ± 0.27
L5E | -0.14 ± 0.1
L5H | 0.038 ± 0.35
L5Y | -0.606 ± 0.38
L5V | -0.906 ± 0.12
L5P | -0.221 ± 0.14
L5S | -0.267 ± 0.11
L5R | -0.889 ± 0.1
L5M | -0.32 ± 0.26
L5N | 0.123 ± 0.3
L5Q | 0.084 ± 0.13
L5G | -0.713 ± 0.13
L5K | -0.444 ± 0.14
